From patent publication US20250257332A1, “TRUNCATED AND FUSION PROTEINS” (Monash University, priority 2021, published 2025)
Entries after “also recorded” stand apart in the source; their conditions may differ.

B1: NAMPT414-491: Truncated hNAMPTcif, residues 414-491 of full length NAMPT, SEQ ID NO: 4 (His-tagged: SEQ ID NO: 5) (protein)
chain: FKDPVADPNKRSKKGRLSLHRTPAGNFVTLEEGKGDLEEYGQDLLHTVFKNGKVTKSYSFDEIRKNAQLNIELEAAHH
B2: NAMPT430-491: Truncated hNAMPTcif, residues 430-491 of full length NAMPT, SEQ ID NO: 8 (His-tagged: SEQ ID NO: 9) (protein)
chain: LSLHRTPAGNFVTLEEGKGDLEEYGQDLLHTVFKNGKVTKSYSFDEIRKNAQLNIELEAAHH
B3: NAMPT422-491: Truncated hNAMPTcif, residues 422-491 of full length NAMPT, SEQ ID NO: 6 (His-tagged: SEQ ID NO: 7) (protein)
chain: NKRSKKGRLSLHRTPAGNFVTLEEGKGDLEEYGQDLLHTVFKNGKVTKSYSFDEIRKNAQLNIELEAAHH
B4: hrNAMPT(2): Second commercially available human recombinant NAMPT protein source (protein)
chain: MNPAAEAEFNILLATDSYKVTHYKQYPPNTSKVYSYFECREKKTENSKLRKVKYEETVFYGLQYILNKYLKGKVVTKEKIQEAKDVYKEHFQDDVFNEKGWNYILEKYDGHLPIEIKAVPEGFVIPRGNVLFTVENTDPECYWLTNWIETILVQSWYPITVATNSREQKKILAKYLLETSGNLDGLEYKLHDFGYRGVSSQETAGIGASAHLVNFKGTDTVAGLALIKKYYGTKDPVPGYSVPAAEHSTITAWGKDHEKDAFEHIVTQFSSVPVSVVSDSYDIYNACEKIWGEDLRHLIVSRSTQAPLIIRPDSGNPLDTVLKVLEILGKKFPVTENSKGYKLLPPYLRVIQGDGVDINTLQEIVEGMKQKMWSIENIAFGSGGGLLQKLTRDLLNCSFKCSYVVTNGLGINVFKDPVADPNKRSKKGRLSLHRTPAGNFVTLEEGKGDLEEYGQDLLHTVFKNGKVTKSYSFDEIRKNAQLNIELEAAHH
B5: hrNAMPT(1): Commercially available human recombinant NAMPT source 1 (Peprotech); used in the mouse injury model (protein)
chain: PPNTSKVYSYFECREKKTENSKLRKVKYEETVFYGLQYILNKYLKGKVVTKEKIQEAKDVYKEHFQDDVFNEKGWNYILEKYDGHLPIEIKAVPEGFVIPRGNVLFTVENTDPECYWLTNWIETILVQSWYPITVATNSREQKKILAKYLLETSGNLDGLEYKLHDFGYRGVSSQETAGIGASAHLVNFKGTDTVAGLALIKKYYGTKDPVPGYSVPAAEHSTITAWGKDHEKDAFEHIVTQFSSVPVSVVSDSYDIYNACEKIWGEDLRHLIVSRSTQAPLIIRPDSGNPLDTVLKVLEILGKKFPVTENSKGYKLLPPYLRVIQGDGVDINTLQEIVEGMKQKMWSIENIAFGSGGGLLQKLTRDLLNCSFKCSYVVTNGLGINVFKDPVADPNKRSKKGRLSLHRTPAGNFVTLEEGKGDLEEYGQDLLHTVFKNGKVTKSYSFDEIRKNAQLNIELEAAHH
B6: CCL8/MCP-2: canonical CCR5 ligand (protein, UniProt Q9Z121 24-97, looked up)
C-C motif chemokine 8: GPDKAPVTCCFHVLKLKIPLRVLKSYERINNIQCPMEAVVFQTKQGMSLCVDPTQKWVSEYMEILDQKSQILQP
B7: CCL4/MIP-1β: canonical CCR5 ligand (protein, UniProt P14097 24-92, looked up)
C-C motif chemokine 4: APMGSDPPTSCCFSYTSRQLHRSFVMDYYETSSLCSKPAVVFLTKRGRQICANPSEPWVTEYMSDLELN

Legend:
[1] = test system: C2C12 murine myoblast cells; experiment: C2C12 cell proliferation, CyQuant Proliferation Assay kit; type: cell-based, mouse; settings: 20 nM, 48 hours, compared with full-length NAMPT
Experimental: FIG. 7. Human NAMPT variants stimulate muscle progenitor proliferation. C2C12 mouse myoblasts were treated with 20 nM full length NAMPT (NAMPT) or NAMPT variants for (NAMPTxxx-xxx, where xxx are amino acid numbers) 48 hours. Quantification of cell proliferation was performed using CyQuant Proliferation Assay kit. […] Box and whiskers denote median with minimum and maximum values. n=4-5 independent experiments per protein. Statistical significance is indicated as exact p-value. […] Significance between conditions were analysed by one-way ANOVA with Tukey post-hoc test.
Human NAMPTcif (hNAMPTcif) and truncated variants of hNAMPTcif were designed by progressively removing N-terminal regions containing positively charged amino acids. Four truncations were produced and numbered T1 to T4. Recombinant protein was produced using a bacterial expression system. hNAMPTcif variants were purified by FPLC using His-tag affinity purification. Cell proliferation assays were performed using C2C12 murine myoblast cells treated with purified recombinant hNAMPTcif variants, as well as full length NAMPT. Cells were treated with 10 nM of recombinant protein for 48 hours in DMEM supplemented with 2% foetal bovine serum at 37° C., 5% CO2. PBS treatment was used as a negative control. 10% foetal bovine serum was used as positive control. Quantification of proliferation was performed using commercially-available CyQuant Proliferation Assay kit (Thermo Fisher Scientific) according to manufacturer's instructions and read using a Synergy H1 plate reader (BioTek). Data were presented as percentage increase versus.
The heparin-binding sequence of placenta growth factor 2 (PIGF2) was fused to the N-terminus of NAMPTcif and produced using a bacterial expression system. PIGF-NAMPTcif was purified by FPLC using His-tag affinity purification followed by size exclusion chromatography. Cell proliferation assays were performed using C2C12 murine myoblast cells treated with purified recombinant NAMPTcif and full length NAMPT. Cells were treated with 2 nM, 10 nM and 20 nM concentrations of recombinant protein for 48 hours in DMEM supplemented with 2% foetal bovine serum at 37° C., 5% CO2. PBS treatment was used as a negative control. 10% foetal bovine serum was used as positive control. Quantification of proliferation was performed using commercially-available CyQuant Proliferation Assay kit (Thermo Fisher Scientific) according to manufacturer's instructions and read using a Synergy H1 plate reader (BioTek). Data were presented as percentage increase versus negative control. A two-tailed unpaired t-test was used to determine statistical significance.

[2] = test system: Human primary endothelial cells derived from umbilical vein; experiment: Human primary endothelial cell proliferation, CyQuant; type: cell-based; settings: 20 nM; 48 hours
Experimental: (§1) FIG. 9. Human NAMPT variants stimulate human endothelial cell proliferation. Human primary endothelial cells derived from umbilical vein were treated with 20 nM full length NAMPT (NAMPT) or NAMPT variants (NAMPTxxx-xxx, where xxx are amino acid numbers) for 48 hours. Quantification of cell proliferation was performed using CyQuant Proliferation Assay kit. […] Treatment with 10% FBS was used as a positive control. Box and whiskers denote median with minimum and maximum values. n=6 independent experiments per protein. Statistical significance is indicated as p-value and determined by one-sample t-test.
Similarly, the inventors next investigated the activity of full length NAMPT, NAMPT402-491 and NAMPT422-491 on human endothelial cell proliferation. Human endothelial cells were derived from umbilical vein and treated with 20 nM full length NAMPT (NAMPT) or NAMPT variants for 48 hours.

[3] = test system: Human primary satellite cells; experiment: Human primary satellite cell proliferation, CyQuant; type: cell-based; settings: 20 nM; 48 hours; media with IGF-1 and FGF-2
Experimental: as §1, with “8.” for “9.”, “satellite” for “endothelial”, “cells” for “cells derived from umbilical vein”, “hours. The media contained the growth factors IGF-1 and FGF-2 as well.” for “hours.”, “20%” for “10%”, “n=6-10” for “n=6”
The inventors next sought to compare the activity of full length NAMPT, NAMPT402-491 and NAMPT422-491 on human satellite cell proliferation. Human primary satellite cells were treated with 20 nM full length NAMPT (NAMPT) or NAMPT402-491 and NAMPT422-491 for 48 hours.

[4] = test system: needle-stab muscle injury in zebrafish larvae; experiment: Larval zebrafish muscle injury and EdU pulse-chase; type: in vivo; settings: 57 nM in Ringer's solution immediately after injury at 4 dpf; EdU at 2 dpi
Experimental: Zebrafish larvae (4 dpf) were anaesthetized in 0.01% tricaine (MS-222) (Sigma-Aldrich) in Ringer's solution. Needle-stab injury was carried out in the dorsal myotome, consisting in a single 30-gauge needle puncture that generates an extensive injury with many damaged muscle fibres. Nampt fragment treatments were carried out by incubating 4 dpf needle-stab-injured larvae in 57 nM Nampt in Ringer's solution immediately after injury. Needle-stab-injured larvae at 6 dpf (2 dpi) were transferred into Ringer's solution containing 50 μg ml-1 EdU (Thermo Fisher Scientific) for 1 h and chased for a further 1.5 h before fixation. Samples were developed using the Click-iT EdU Alexa Fluor 647 imaging Kit (Thermo Fisher Scientific) following the manufacturer's protocol, followed by a phalloidin immunostaining (Thermo Fisher Scientific). EdU+ cells in a region encompassing two myotomes on either side of the injury were quantified as the number of EdU+ cells outside the injury region. EdU+ cells in the caudal haematopoietic tissue were excluded from this analysis. Statistical analysis has been conducted using Two-way ANOVA with Tuckey's multiple comparison test.

C2C12 myoblasts = experiment: C2C12 myoblast proliferation by EdU incorporation; type: cell-based, mouse; settings: exogenously added factor vs control
Experimental: FIG. 2. […] In vitro assay assessing the effects of exogenously introduced factors on C2C12 myoblast proliferation. Proliferation is identified by EdU incorporation. […] Mean+S.D. Two-way ANOVA with Tukey's multiple comparison test. […] Mean±SEM
The mouse muscle cell line C2C12 (Yaffe, D. & Saxel, O. Serial passaging and differentiation of myogenic cells isolated from dystrophic mouse muscle. Nature 270, 725 (1977) were cultured in growth media (Dulbecco's Modified Eagle Medium (4.5 g/l D-Glucose, No L Glutamine, No Sodium Pyruvate (Gibco))+20% Fetal Bovine Solution-One Shot (Gibco)+1% Glut Max 100×(Gibco)). Cells were maintained at 37° C., 5% CO2. Cells at 70% confluence, passage 8 were extracted from T75 flasks with 0.025% Tryspin EDTA (Gibco), neutralised in growth media, spun at 180×g for 5 min to pellet cells. The cells were then resuspended in 10 ml of fresh growth media. 500 μl of cells were plated on a 8-well on cover glass II (Sarstedt) chamber slide at a density of 1×10^3 cells/ml. Cells were left 4 h at 37° C. to re-attach. For drug treatments, the media were supplemented with appropriate doses and cultured for 6 h.

| Molecule | cell proliferation, percentage increase vs PBS-treated control [1] | myoblast proliferation (EdU incorporation), factor alone (C2C12 myoblasts) | further results |
| --- | --- | --- | --- |
| B1 | enhanced cellular proliferation compared to full-length NAMPT |  |  |
| B2 | enhanced cellular proliferation compared to full-length NAMPT |  |  |
| B3 | highest cellular proliferation compared to all NAMPT variants tested; also recorded: statistically significant increase in proliferation |  | endothelial cell proliferation, percentage increase vs PBS-treated control [2]: still stimulated endothelial cell proliferation above negative control; satellite cell proliferation, percentage increase vs PBS-treated control [3]: even greater satellite cell proliferation compared to both full length NAMPT and NAMPT402-491; cell proliferation (EdU-positive cells) within the injury zone [4]: significant increase in cell proliferation within the injury zone; also recorded: significantly higher levels as compared to human recombinant-NAMPT (hrNAMPT) |
| B4 |  | dose dependent increase in myoblast proliferation; also recorded: comparable and significant dose dependent increases in myoblast proliferation |  |
| B5 |  | dose dependent increase in myoblast proliferation; also recorded: comparable and significant dose dependent increases in myoblast proliferation |  |
| B6 |  | could be recapitulated | myoblast proliferation (EdU incorporation), factor alone (C2C12 myoblasts; listed as mrCCL8): functioned to enhance C2C12 proliferation |
| B7 |  | could be recapitulated | myoblast proliferation (EdU incorporation), factor alone (C2C12 myoblasts; listed as mrCCL4): functioned to enhance C2C12 proliferation |
